This note sets out measurements from article PMC5673899, “Structural basis for receptor recognition of pollen tube attraction peptides” (Nature Communications, 2017).

“Also recorded” adds a separate entry of the source.

Experiment [1] addresses AtPRK6^LRR. In words: ITC, AtLURE1.2 titrated into AtPRK6^LRR. Also noted: species or system Arabidopsis thaliana. As to conditions: MicroCalorimeter ITC200, 25 °C, 200 mM HEPES pH 7.0, 100 mM NaCl, ~0.9 mM AtLURE1.2 into 0.08 mM AtPRK6^LRR, 20 × 2 μl at 2.5-min intervals, insect cell proteins, read-out: dissociation constant / binding affinity. The source says:
(§1) The genes of AtPRK3 ^LRR (residues 1–241), AtPRK4 ^LRR (residues 1–277), AtPRK5 ^LRR (residues 1–279), AtPRK6 ^LRR (residues 1–262), MIK1 ^LRR (residues 1–633), MIK2 ^LRR (residues 1–707) were amplified from Arabidopsis cDNA library by PCR and cloned into pFastBac-1 vector with a C-terminal 6 × His-tag. Their identities were confirmed by sequencing. The mature form of AtLURE1.1 (residues 20–94), AtLURE1.2 (residues 20–90), AtLURE1.3 (residues 21–91), and AtLURE1.4 (residues 20–90) were cloned into pFastBac-1 vector, with a modified N-terminal hemolin signal peptide and 6 × His-SUMO tag. Point mutation constructs were generated by QuickChange Site-Directed Mutagenesis Kit (Strategene). All the proteins were expressed using the Bac-to-Bac baculovirus expression system (Invitrogen) in High Five cells at 22 °C. One liter of High Five cells (2.0 × 10^6 cells mL^−1) cultured in the medium from Expression Systems was infected with 25 ml recombinant baculovirus and the media was collected after 72 h of infection. Secreted LRR proteins were purified using Ni-NTA (Novagen) and size-exclusion chromatography (Hiload 200, GE Healthcare) in buffer containing 10 mM Bis-Tris pH 6.0 and 100 mM NaCl. The His-SUMO tag of the AtLURE proteins was removed by Prescission Protease at 4 °C overnight in buffer containing 25 mM Tris pH 8.0 and 150 mM NaCl. […]

In experiment [2] the test system is AtPRK6^LRR. In words: Gel filtration assay with AtPRK6^LRR. It is filed as binding, Arabidopsis thaliana.
Text: as §1
(Size exclusion chromatography separates by hydrodynamic size, large species first.)

The subject of the next experiment is AtPRK3^LRR. Description: Gel filtration assay with AtPRK3^LRR. The class given is binding, Arabidopsis. The conditions noted are these: 4 °C 30 min, 10 mM Bis-Tris pH 6.0, 100 mM NaCl.
Text: as §1

Another experiment relates to AtPRK6^LRR ΔN239I240. Description: In vitro pull-down with AtPRK6^LRR mutant with Asn239 and Ile240 deleted. It is filed as binding, Arabidopsis thaliana. The conditions noted are these: wild-type AtLURE1.2.
Text: as §1, with “NaCl.” for “NaCl. The His-SUMO tag of the AtLURE proteins was removed by Prescission Protease at 4 °C overnight in buffer containing 25 mM Tris pH 8.0 and 150 mM NaCl.”
The purified His-tagged ectodomains of AtPRK proteins and MIK1, 2 were used to pull-down the AtLURE1.2 peptide. […] All the eluted samples were analyzed by SDS-PAGE and visualized by Coomassie blue staining. […]

The test system of experiment [3] is prk6 pollen tubes transformed with PRK6 of wild-type. Description: Gelatin-beads assay, prk6 pollen tubes transformed with wild-type PRK6. The class given is cell-based, Arabidopsis. The conditions noted are these: beads with 250 nM wild-type AtLURE1.2; 10–23 pollen tubes per assay, three assays. How it is done: Attraction activities of mutant AtLURE1.2 peptides were examined for semi-in-vivo pollen tubes growing through cut, pollinated pistils by gelatin-beads assay and wavy assay, [20]. For the gelatin-beads assay, pollen tubes were grown on solid pollen germination medium poured into a mold made with 1-mm thick silicone rubber and cover glasses. After hand-pollination, the topside cover glass was removed and the medium was covered with hydrated silicone oil (KF-96–100CS; Shin-Etsu). Attraction of pollen tubes toward the peptide was evaluated using AtLURE1 peptide containing gelatine beads under an inverted microscope (IX71, Olympus) equipped with a micro-manipulator (Narishige). For the AtLURE1-responsive wavy assay, the purified AtLURE1.2 peptide was added to solid pollen germination medium, which was melted at 70 °C and then cooled to a certain degree. The mixture was mixed by vortexing and poured into the mold. Pollen tubes of each genotype were grown through cut styles, as mentioned above. Each peptide (25 μM in 10 mM Bis-Tris (pH 6.0) and 100 mM NaCl) was diluted to 250 nM by cultivation medium in both assays. To examine reactivity of PRK6 mutants to AtLURE1.2, constructs for PRK6 mutants, D234A, N239A, and ΔN239I240, were generated by site-directed mutagenesis from a wild-type PRK6 vector, pPZP221-pPRK6::PRK6-mRuby2 (ref. [20]). […]

B1: AtLURE1.2: mature form of AtLURE1.2 (residues 20–90), defensin-like cysteine-rich peptide expressed in insect cells (protein)
chain: TLINGSSDEERTYSFSPTTSPFDPRSLNQELKIGRIGYCFDCARACMRRGKYIRTCSFERKLCRCSISDIK
modifications: left off: His6, N-terminal, cleaved | SUMO, N-terminal, cleaved
notes: mature form of AtLURE1.2 (residues 20–90), defensin-like cysteine-rich peptide expressed in insect cells
As to B1, on AtPRK6^LRR [1], the Kd was around 3000 nM. Also, the “effect on monomeric state of AtPRK6^LRR in solution” value in the experiment with AtPRK6^LRR [2] (gel filtration) is reported as “did not alter the monomeric status; also recorded: does not alter the monomeric state”. For the same molecule, the “complex formation in gel filtration” value in the experiment on AtPRK6^LRR [2] (purified proteins mixed at molar ratio about 1:3, 4 °C 30 min, 10 mM Bis-Tris pH 6.0, 100 mM NaCl) is recorded as “formed a stable complex”. Further, the “interaction in gel filtration” value with AtPRK3^LRR is on record as “none of the purified AtPRK3^LRR, MIK1^LRR or MIK2^LRR proteins showed detectable interaction”. For the same molecule, in the experiment with AtPRK6^LRR ΔN239I240, the “interaction in pull-down assay” value is given as “A similar effect was observed; also recorded: significantly compromised”. Besides, the pollen tube attraction result in experiment [3] was “attraction was normally observed”.
